± gives the uncertainty stated by the source.
Assay: amyloid nucleation score (Sup35N fusion, yeast selection) (log enrichment); library NNK3; higher = more nucleation; inactive = no reads after selection
Method in brief: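 Three technical output replicates were used for random libraries. Psi-negative yeast expressing peptides of 20 random codons fused to Sup35N were induced with 100 μM copper sulfate for 24 hours and grown 7 days at 30°C on medium lacking adenine and uracil, and input and output plasmid inserts were Illumina-sequenced, excluding sequences with under 100 input reads. The nucleation score is the DiMSum log enrichment of output over input reads, centred on the mode score of non-aggregating sequences.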
In the case of EAKMMRDLSVLVGMPYIMTN, the amyloid nucleation score is reported as “inactive”.
Work on VTCSYQMVLWAAFVVKCPAL yielded an amyloid nucleation score of 0.817 ± 0.21.
For YLWFWQFNTRLGVRRIFWTR, the amyloid nucleation score was “inactive”.
With CITSNVMRSSRLKLV the amyloid nucleation score was “inactive”.
For NEDLIDVQVVHC, the amyloid nucleation score was “inactive”.
For GTLTVYNRDFRDIGDFKIYA, the amyloid nucleation score was “inactive”.
In the case of RTKMLAVRDVHSGYHSTTQC, the amyloid nucleation score is reported as “inactive”.
Work on FYVTMTAASFPDFRHCVVND yielded an amyloid nucleation score of 0.01 ± 0.57.
In the case of SYYLITDS, the amyloid nucleation score is reported as “inactive”.
In the case of MGRLKCTVKPVSYEMWKVYA, the amyloid nucleation score is reported as “inactive”.
With KMCLLFVREFRMLFACVWVT the amyloid nucleation score was “inactive”.
For LSILTFGSCTNKSH, the amyloid nucleation score was “inactive”.
In the case of CLYRGGFSFYDFSGFCVLSS, the amyloid nucleation score is reported as “inactive”.
With KRYCSLMML the amyloid nucleation score was “inactive”.
VRSTTQHVHLICCNEYFRH showed an amyloid nucleation score of 2.82 ± 0.052.
In the case of GGENLTFLRSAFCSNWA, the amyloid nucleation score is reported as “inactive”.
In the case of LCVVEIFTLIGSCCHSDLGW, the amyloid nucleation score is reported as 0.914 ± 0.13.
For WGLLV, the amyloid nucleation score was “inactive”.
In the case of NLLWIISHNMNGVSRIISSV, the amyloid nucleation score is reported as “inactive”.
LLYVICPVRINLRHWRATDS showed an amyloid nucleation score of 0.487 ± 0.17.
With HSLLMCSMLLRFYVQYPICI the amyloid nucleation score was “inactive”.
For KLCTVSNRSVMPGIT, the amyloid nucleation score was “inactive”.
With KSWGLVHKCSSAFMFPKFCP the amyloid nucleation score was “inactive”.
For VRHGCG, the amyloid nucleation score was “inactive”.
In the case of RDQEHSRTFISM, the amyloid nucleation score is reported as “inactive”.
In the case of VEGRMLSYLHVIYMYSGWRK, the amyloid nucleation score is reported as “inactive”.
For FRILIIFSVYGSMISHLP, the amyloid nucleation score was “inactive”.
In the case of SRILGNRMAFTA, the amyloid nucleation score is reported as “inactive”.
In the case of YYGMMYEGGYAVIDIGLGHL, the amyloid nucleation score is reported as “inactive”.
In the case of FVYFFCVSLTSSSPSDCDWP, the amyloid nucleation score is reported as 1.6 ± 0.069.
For QSYDL, the amyloid nucleation score was “inactive”.
For RIGVTYWGICSLKLT, the amyloid nucleation score was “inactive”.
Work on SWWFCVWFQNI yielded an amyloid nucleation score of 0.888 ± 0.13.
For VSFCGTPFFYHWRHSNWLFK, the amyloid nucleation score was “inactive”.
For QKMCKPVFV, the amyloid nucleation score was “inactive”.
In the case of CRCPSYMFHA, the amyloid nucleation score is reported as 0.703 ± 0.17.
In the case of SFRSGLLSGRKWGHPVSSQE, the amyloid nucleation score is reported as “inactive”.
With RGVFLTEEASFIGELSLCSA the amyloid nucleation score was “inactive”.
For QSSIHTFCLTLLLSKTYSYQ, the amyloid nucleation score was “inactive”.
In the case of SFKQIIDRFTSSFIVIFGLR, the amyloid nucleation score is reported as “inactive”.
With SNSFSSSLLCLDARD the amyloid nucleation score was “inactive”.
For ACIYYHTASCKRCQQAIESE, the amyloid nucleation score was “inactive”.
In the case of ITGFLFRVVW, the amyloid nucleation score is reported as 0.829 ± 0.13.
With TQRTGY the amyloid nucleation score was “inactive”.
With FSLVMDCI the amyloid nucleation score was “inactive”.
For HSDVWSVRSGAYLLLYIQTM, the amyloid nucleation score was “inactive”.
With NSCIFQTRMSGSYETVYHAP the amyloid nucleation score was 0.054 ± 0.45.
With HDYYLLLLTATL the amyloid nucleation score was “inactive”.
For WKTTMALRSVLPGGYLHFCV, the amyloid nucleation score was “inactive”.
For FAVDFLCHVS, the amyloid nucleation score was “inactive”.
With VINRSLCPERFGKGAL the amyloid nucleation score was “inactive”.
In the case of TLRLLDTVMWHKLGGTRAMS, the amyloid nucleation score is reported as “inactive”.
In the case of LMQDLENVS, the amyloid nucleation score is reported as “inactive”.
In the case of DVLLARCYNCLSAFRLNSLC, the amyloid nucleation score is reported as “inactive”.
In the case of VIKALRMVCMGHWSYSVTLS, the amyloid nucleation score is reported as “inactive”.
For RSLWALSPENRPLGKVS, the amyloid nucleation score was “inactive”.
For FSCIKTRMVGYSLRLNQFVD, the amyloid nucleation score was “inactive”.
CCNYFLNIIYVVQV gave an amyloid nucleation score of 3.14 ± 0.058.
With ENSGWSKRVFSSFFMIAMMY the amyloid nucleation score was “inactive”.
With FRYLNLKKDD the amyloid nucleation score was “inactive”.
For IYYFSLSMVLRCSEWTLYVY, the amyloid nucleation score was “inactive”.
For SLKPLVYMGLST, the amyloid nucleation score was “inactive”.
With DCVYSSPCGVALIDLGAGLK the amyloid nucleation score was “inactive”.
In the case of CNAYLAYARYIYTHGWPRSL, the amyloid nucleation score is reported as “inactive”.
With YIVLMSLLFGM the amyloid nucleation score was “inactive”.
For PTSFQYRCVSI, the amyloid nucleation score was “inactive”.
For KYCGQLQFRCIELEGGIKRE, the amyloid nucleation score was “inactive”.
With WLYRNA the amyloid nucleation score was “inactive”.
Substance CGMCLGLLHR has an amyloid nucleation score of 0.898 ± 0.21.
With LIKCPIRYDDYKRPWLAS the amyloid nucleation score was “inactive”.
In the case of SRIGFPICLRRGYVNQDCNG, the amyloid nucleation score is reported as “inactive”.
With YVEHAYIRWRSVCKSIFLFS the amyloid nucleation score was “inactive”.
For WTMVSGDALTCYTMTTMVRR, the amyloid nucleation score was “inactive”.
CQIEILLPLDVLY showed an amyloid nucleation score of 1.06 ± 0.09.
With VNFLSGWEPVIVKYHRSA the amyloid nucleation score was “inactive”.
With LKVPSVVNR the amyloid nucleation score was “inactive”.
With GSLGAMKNQTTASQGAEGAL the amyloid nucleation score was “inactive”.
With TRFGRSANWLFFSAPTGRQN the amyloid nucleation score was “inactive”.
AYPARLTIASEFKIMAHYGM showed an amyloid nucleation score of 1.36 ± 0.15.
In the case of SHMEWFT, the amyloid nucleation score is reported as 1.92 ± 0.088.
With ANPLAYLQSMSGTSGNT the amyloid nucleation score was “inactive”.
For SNMIRVRWRVAFRGWMARCL, the amyloid nucleation score was “inactive”.
In the case of QKAVIGM, the amyloid nucleation score is reported as “inactive”.
With LAIILLFAVRLCRDANGDAM the amyloid nucleation score was “inactive”.
In the case of MSNLCDLHKN, the amyloid nucleation score is reported as “inactive”.
With PDLIDVFGE the amyloid nucleation score was “inactive”.
With RMRCAAVRAARAVPATKGEG the amyloid nucleation score was “inactive”.
With KLTGQDLVVGNAFATVVYVE the amyloid nucleation score was “inactive”.
For KRCWLWWIKVCTKMLLEVSS, the amyloid nucleation score was “inactive”.
In the case of IPRWKFN, the amyloid nucleation score is reported as -0.57 ± 1.1.
With SLNFLR the amyloid nucleation score was 0.937 ± 0.39.
For QQNQVSIDGCWV, the amyloid nucleation score was “inactive”.
In the case of MQLDYSSSVLNMFLDANILY, the amyloid nucleation score is reported as “inactive”.
With FYVNCFSL the amyloid nucleation score was 1.01 ± 0.11.
For ITWTRGDVGQTHNSAMLSHT, the amyloid nucleation score was “inactive”.
With SVYPYESYLVW the amyloid nucleation score was “inactive”.
In the case of VGSIARLFVQTAMPVPKLAR, the amyloid nucleation score is reported as “inactive”.
In the case of YRKNLRHSLCRNWLYMDCHV, the amyloid nucleation score is reported as “inactive”.
In the case of LGITNGRL, the amyloid nucleation score is reported as “inactive”.
In the case of VIVCNECLG, the amyloid nucleation score is reported as 0.546 ± 0.42.
In the case of SVLMA, the amyloid nucleation score is reported as “inactive”.
For VHAMWKSICNTSCML, the amyloid nucleation score was 2.53 ± 0.052.
With MLRDFFQ the amyloid nucleation score was “inactive”.
In the case of GSVSPGNSILICFWFFWLLW, the amyloid nucleation score is reported as “inactive”.
Substance VRAGSLYHCVRNPISRGLAV has an amyloid nucleation score of -0.57 ± 1.8.
With VVGNSCVYPVGPRFAE the amyloid nucleation score was -0.454 ± 0.9.
In the case of FSILAFMSDLLS, the amyloid nucleation score is reported as “inactive”.
In the case of RYRPHNPDVVN, the amyloid nucleation score is reported as “inactive”.
In the case of FYLIRKTIFLGSISLVWYGV, the amyloid nucleation score is reported as “inactive”.
In the case of VVAIWLLGAINMLITTIYSS, the amyloid nucleation score is reported as “inactive”.
With RITPLDCLSNGRQ the amyloid nucleation score was “inactive”.
In the case of IVGLDWKNATVRDCRRNFIN, the amyloid nucleation score is reported as “inactive”.
With VMFLEDSVFV the amyloid nucleation score was “inactive”.
For PTNWLVFYFCSGYAFNSFED, the amyloid nucleation score was 3.31 ± 0.074.
NMFCVPYVKVESGCIMKRGN showed an amyloid nucleation score of 1.91 ± 0.06.
With FEYEKMLKAYGEGVIGSWLF the amyloid nucleation score was “inactive”.
With TIGFFSVVNYVWFSAYNWQS the amyloid nucleation score was -0.453 ± 0.35.
With LPSYLESYYCVRVISGFYLS the amyloid nucleation score was “inactive”.
With CDIHLRIY the amyloid nucleation score was “inactive”.
For TCEWLSNYFKDLFIMVLSIS, the amyloid nucleation score was “inactive”.
